Source: patent US20160340420A1 (Novartis, published 2016)

How the values were obtained:
biotinylated VEGF [1] = biological target: T1, biotinylated VEGF (human, UniProt P15692-4 27-191, limits assumed, biotinylated (sites not given)); test: competition ELISA with VEGFR2/Fc for biotinylated VEGF; 6% 1008, 9% sucrose, 20 mM citrate, 0.1% PS80, pH 6.25; 2-8 C, 8 weeks
T1 construct: The ELISA paragraph says only 'biotinylated VEGF'; also called human vascular endothelial growth factor A; VEGF-A
Method: (§1) The competition ELISA was used for potency testing.
(§2) The samples were stored at 2-8° C., 25° C., 40° C. and light cabinet (LC); they also went through three cycles of freeze-thaw (FT). The samples were pulled according to the schedule shown in Table 30, and analyzed by various analytical methods.

biotinylated VEGF [2] = biological target: T1, biotinylated VEGF; test: competition ELISA with VEGFR2/Fc for biotinylated VEGF; 6% 1008, 9% sucrose, 20 mM citrate, 0.1% PS80, pH 6.25; 2-8 C, 12 weeks
Method: as §1, §2

biotinylated VEGF [3] = biological target: T1, biotinylated VEGF; test: competition ELISA with VEGFR2/Fc for biotinylated VEGF; 6% 1008, 9% sucrose, 20 mM citrate, 0.1% PS80, pH 6.25; 40 C, 4 weeks
Method: as §1, §2

biotinylated VEGF [4] = biological target: T1, biotinylated VEGF; test: competition ELISA with VEGFR2/Fc for biotinylated VEGF; 6% 1008, 9% sucrose, 20 mM citrate, 0.1% PS80, pH 6.25; 25 C, 12 weeks
Method: as §1, §2

biotinylated VEGF [5] = biological target: T1, biotinylated VEGF; test: competition ELISA with VEGFR2/Fc for biotinylated VEGF; 6% 1008, 9% sucrose, 20 mM citrate, 0.1% PS80, pH 6.25; 2-8 C, 26 weeks
Method: as §1, §2

biotinylated VEGF [6] = biological target: T1, biotinylated VEGF; test: competition ELISA with VEGFR2/Fc for biotinylated VEGF; 6% 1008, 9% sucrose, 20 mM citrate, 0.1% PS80, pH 6.25; 25 C, 26 weeks
Method: as §1, §2

biotinylated VEGF [7] = biological target: T1, biotinylated VEGF; test: competition ELISA with VEGFR2/Fc for biotinylated VEGF; 6% 1008, 9% sucrose, 20 mM citrate, 0.1% PS80, pH 6.25; 25 C, 8 weeks
Method: as §1, §2

biotinylated VEGF [8] = biological target: T1, biotinylated VEGF; test: competition ELISA with VEGFR2/Fc for biotinylated VEGF; 6% 1008, 9% sucrose, 20 mM citrate, 0.1% PS80, pH 6.25; 2-8 C, 0 weeks
Method: as §1, §2

biotinylated VEGF [9] = biological target: T1, biotinylated VEGF; test: competition ELISA with VEGFR2/Fc for biotinylated VEGF; control formulation (60 mg/ml 1008, 20 mM citrate, 0.001% PS20, pH 6.25), 5 weeks at 40 C
Method: as §1
The control formulation was filtered through 0.2 um syringe filter and stored at 40° C., ambient room temperature, and refrigerator. The samples were pulled at 0, 2 and 5 weeks for 40° C. samples, and 26 weeks for samples stored at ambient room temperature and refrigerator. The selected stability samples were tested for pH, osmolality, content by A280, SEC, IEX CGE and ELISA.

biotinylated VEGF [10] = biological target: T1, biotinylated VEGF; test: competition ELISA with VEGFR2/Fc for biotinylated VEGF; 6% 1008, 9% sucrose, 20 mM citrate, 0.1% PS80, pH 6.25; 40 C column, 0 weeks (initial)
Method: as §1, §2

T1 sequence (P15692 other isoform, or with tags, fused parts or gaps limits assumed): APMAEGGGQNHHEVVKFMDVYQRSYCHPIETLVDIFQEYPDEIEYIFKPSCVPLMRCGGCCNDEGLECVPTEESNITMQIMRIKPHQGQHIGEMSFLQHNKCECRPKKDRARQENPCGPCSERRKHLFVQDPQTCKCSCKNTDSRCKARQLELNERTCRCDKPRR

ELISA (relative potency against 1008 reference standard) (biotinylated VEGF [1]): 1.2 ratio to 1008 reference standard | ELISA (relative potency against 1008 reference standard) (biotinylated VEGF [2]): 0.97 ratio to 1008 reference standard | ELISA (relative potency against 1008 reference standard) (biotinylated VEGF [3]): 0.87 ratio to 1008 reference standard | ELISA (relative potency against 1008 reference standard) (biotinylated VEGF [4]): 0.92 ratio to 1008 reference standard | ELISA (relative potency against 1008 reference standard) (biotinylated VEGF [5]): 1.1 ratio to 1008 reference standard | ELISA (relative potency against 1008 reference standard) (biotinylated VEGF [6]): 1.1 ratio to 1008 reference standard | ELISA (relative potency against 1008 reference standard) (biotinylated VEGF [7]): 1.1 ratio to 1008 reference standard | ELISA (relative potency against 1008 reference standard) (biotinylated VEGF [8]): 0.86 ratio to 1008 reference standard | ELISA (relative potency against 1008 reference standard) (biotinylated VEGF [9]): 1 ratio to 1008 reference standard | ELISA (relative potency against 1008 reference standard) (biotinylated VEGF [10]): 0.86 ratio to 1008 reference standard
B1: 1008 antibody (scFv)
scFv: MEIVMTQSPSTLSASVGDRVIITCQASEIIHSWLAWYQQKPGKAPKLLIYLASTLASGVPSRFSGSGSGAEFTLTISSLQPDDFATYYCQNVYLASTNGANFGQGTKLTVLGGGGGSGGGGSGGGGSGGGGSEVQLVESGGGLVQPGGSLRLSCTASGFSLTDYYYMTWVRQAPGKGLEWVGFIDPDDDPYYATWAKGRFTISRDNSKNTLYLQMNSLRAEDTAVYYCAGGDHNSGWGLDIWGQGTLVTVSS
notes: also called anti-VEGF antibody
